B1: SlFLS promoter E-box probe 3 (dsDNA)
DNA 1: TAAAAAGCTGTTTATCAGCACTTGTTTGCCAAACACATCAAC
DNA 2: GTTGATGTGTTTGGCAAACAAGTGCTGATAAACAGCTTTTTA
B2: SlCHS1 promoter E-box probe 1 (dsDNA)
DNA 1: AAGCCATTTTCTCTTCTTCACTTGCTAAAATTTGTATAATAT
DNA 2: ATATTATACAAATTTTAGCAAGTGAAGAAGAGAAAATGGCTT
B3: SlCHS1 promoter E-box probe 2 (dsDNA)
DNA 1: CTAAAAAAGTTGCTCAAACACGTGAAGACTAGCTACCGCCTA
DNA 2: TAGGCGGTAGCTAGTCTTCACGTGTTTGAGCAACTTTTTTAG
B4: SlCHS1 promoter E-box probe 3 (dsDNA)
DNA 1: TTTATACAGTTCTCTGCCCAAGTGTCTTTCTCTTTCTTGTTT
DNA 2: AAACAAGAAAGAGAAAGACACTTGGGCAGAGAACTGTATAAA
B5: SlFLS promoter E-box probe 2 (dsDNA)
DNA 1: ATTATACATACAAAATATCAATTGCAAGCTCTGATTTTATGT
DNA 2: ACATAAAATCAGAGCTTGCAATTGATATTTTGTATGTATAAT

From article PMC12120882 come the findings set out here.

The target in this data set is SlbHLH95 (GST fusion) (Solanum lycopersicum, UniProt A0A3Q7IJR5 1-380). Description: EMSA. A general note: A gel shift assay detects complexes by their altered migration in electrophoresis.
Take B1: the binding result was “no binding”.

For the molecule B2, the binding result is recorded as “no binding”.

For B3, the binding result is on record as “no binding”.

On to B4, for which the binding result is listed as “no binding”.

On to B5, for which the binding result was “binds”.
